# From the supplement of paper PMC10567573
# B1: KRT18 (parent)
# chain: PQVRDWSHYFKIIEDLRAQIFANT
# B2: STEAP1 (parent)
# chain: LWKMKPRRNLEEDDYLHKDTGETS
# Variants of: B1
# Experiment: protein stability index of a GFP-peptide fusion (GPS, HEK-293T) (PSI 1-6); higher = more stable
# Conditions: c terminus: a fixed tail appended
# 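Note: lentivirally expressed fusions sorted by FACS into six bins by GFP to DsRed ratio, PSI derived from sequencing read proportions per bin multiplied by bin number.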
row,Variant,protein stability index
1,L16Y,2.26
2,L16E,2.63
3,L16D,2.22
4,L16Q,2.47
5,L16I,2.03
6,L16C,1.7
7,L16A,2.17
8,L16S,2.03
9,L16W,2.05
10,L16T,2.09
11,L16P,2.38
12,L16F,1.53
13,L16N,2.62
14,L16G,2.32
15,L16V,1.96
16,L16R,2.33
17,L16M,2.08
18,L16K,1.85
19,L16H,2.13
20,Q19G,2.34
21,Q19L,1.79
22,Q19D,2.49
23,Q19M,1.89
24,Q19H,2.09
25,Q19R,2.45

row,Variant,protein stability index
1,Q19A,2.05
2,Q19F,1.7
3,Q19C,1.86
4,Q19T,2.8
5,Q19N,2.56
6,Q19V,1.59
7,Q19E,2.62
8,Q19Y,1.65
9,Q19K,2.12
10,Q19P,1.97
11,Q19S,2.67
12,Q19I,1.42
13,Q19W,2.39
14,K11Y,1.35
15,K11G,1.74
16,K11S,2.75
17,K11V,2.99
18,K11R,2.11
19,K11P,1.55
20,K11C,2.12
21,K11L,3.02
22,K11D,1.84
23,K11H,2.25
24,K11W,3.08
25,K11I,2.25

row,Variant,protein stability index
1,K11Q,2.5
2,K11A,2.1
3,K11E,1.52
4,K11T,1.98
5,K11N,1.49
6,K11M,1.42
7,F10W,2.7
8,F10R,2.58
9,F10Y,1.54
10,F10Q,3.22
11,F10S,2.15
12,F10T,3.01
13,F10V,1.69
14,I20P,1.91
15,I20C,1.86
16,I20A,2.07
17,I20W,1.62
18,I20S,2.17
19,I20L,2
20,I20V,2.08
21,I20R,2.75
22,I20K,2.7
23,I20D,2.59
24,I20M,2.15
25,I20Q,2.09

row,Variant,protein stability index
1,I20T,2.83
2,I20G,2.9
3,I20Y,2.16
4,I20F,2.22
5,I20E,2.86
6,I20N,3.05
7,I20H,1.89
8,T24I,2.6
9,T24L,2.31
10,T24M,2.81
11,T24S,2.31
12,T24C,2.02
13,T24K,2.53
14,T24D,2.75
15,T24F,2.34
16,T24P,2.84
17,T24H,2.43
18,T24Y,1.72
19,T24R,2.23
20,T24W,2.27
21,T24N,2.74
22,T24V,2.04
23,T24Q,2.47
24,T24E,3.47
25,T24A,1.9

row,Variant,protein stability index
1,T24G,2.5
2,A18P,2.15
3,A18D,2.44
4,A18H,1.88
5,A18T,1.48
6,A18Y,1.77
7,A18Q,2.02
8,A18K,2.68
9,A18L,2.29
10,A18M,1.81
11,A18G,1.9
12,A18I,2.13
13,A18E,2.7
14,A18N,2.8
15,A18C,1.94
16,A18S,2.25
17,A18F,2.24
18,A18R,2.44
19,A18W,2.34
20,A18V,1.97
21,D15Q,1.71
22,D15K,3.02
23,D15E,2.28
24,D15A,2.47
25,D15N,2.1

row,Variant,protein stability index
1,D15Y,3.62
2,D15F,1.58
3,D15T,1.78
4,D15I,1.74
5,D15R,1.89
6,D15G,2.16
7,D15P,1.4
8,D15H,1.57
9,D15S,2.09
10,D15W,1.61
11,D15M,2.87
12,D15L,2.69
13,D15V,2.32
14,N23V,2.08
15,N23E,2.8
16,N23K,2.06
17,N23Q,1.86
18,N23C,2.36
19,N23M,2.1
20,N23I,1.93
21,N23D,2.43
22,N23Y,1.56
23,N23F,1.22
24,N23A,1.86
25,N23P,1.91

row,Variant,protein stability index
1,N23S,2.33
2,N23R,2.57
3,N23H,2.35
4,N23L,2.53
5,N23T,1.56
6,N23W,1.95
7,I12C,2.38
8,I12T,2.78
9,I12R,2.55
10,I12Q,2.41
11,I12V,2.04
12,I12Y,2.2
13,I12H,2.36
14,I12G,2.72
15,I12N,3.55
16,I12A,2.53
17,I12M,1.92
18,I12S,2.3
19,I12E,2.45
20,I12W,3.05
21,I12K,1.85
22,I12D,3.17
23,I12L,2.27
24,I12P,2.24
25,I12F,1.9

row,Variant,protein stability index
1,E14R,2.27
2,E14A,2
3,E14C,2.33
4,E14Q,2.64
5,E14S,2.26
6,E14T,2
7,E14D,2.28
8,E14V,2.11
9,E14F,1.59
10,E14N,2.03
11,E14H,2.69
12,E14M,2.32
13,E14P,1.67
14,E14Y,1.9
15,E14K,2.77
16,E14G,2
17,E14W,2.79
18,E14I,2.46
19,E14L,1.39
20,I13Y,1.72
21,I13S,2.15
22,I13W,3.46
23,I13Q,2.75
24,I13P,2.63
25,I13R,2.69

row,Variant,protein stability index
1,I13H,2.16
2,I13N,2.38
3,I13D,2.9
4,I13T,2.54
5,I13M,1.62
6,I13C,2.3
7,I13E,2.32
8,I13L,2.27
9,I13G,2.9
10,I13A,2.77
11,I13V,2.87
12,I13F,2.12
13,I13K,1.79
14,A22F,1.8
15,A22D,2.49
16,A22E,2.12
17,A22Q,2.72
18,A22G,2.51
19,A22C,1.9
20,A22W,1.41
21,A22S,2.17
22,A22N,2.53
23,A22L,1.45
24,A22I,2.5
25,A22H,2

row,Variant,protein stability index
1,A22V,2.01
2,A22T,2.14
3,A22M,2.37
4,A22K,2.1
5,A22P,2.4
6,A22R,1.99
7,A22Y,1.64
8,F21C,1.97
9,F21P,2.15
10,F21E,2.98
11,F21A,2.83
12,F21L,2.7
13,F21I,1.91
14,F21T,1.97
15,F21S,2.32
16,F21Q,2.46
17,F21W,1.84
18,F21H,2.4
19,F21G,2.52
20,F21M,2.16
21,F21K,2.98
22,F21V,2.39
23,F21D,3.27
24,F21R,2.33
25,F21Y,3.6

row,Variant,protein stability index
1,F21N,2.46
2,R17H,2.58
3,R17W,1.97
4,R17E,2.61
5,R17G,2.3
6,R17T,2.27
7,R17I,2.61
8,R17M,2.12
9,R17S,2.02
10,R17F,1.54
11,R17A,2.14
12,R17N,2.64
13,R17D,2.4
14,R17C,1.62
15,R17Q,2.19
16,R17Y,1.51
17,R17K,3.07
18,R17P,2.15
19,R17V,1.89
20,R17L,1.96

# Variants of: B2
# Experiment: as above
# Conditions: c terminus: a fixed tail appended
row,Variant,protein stability index
1,W2P,5.49
2,W2T,5.22
3,W2E,5.45
4,W2M,4.78
5,W2A,5.25
6,W2G,4.96
7,W2D,5.62
8,W2N,4.82
9,W2C,5.08
10,W2L,5
11,W2S,5.48
12,W2I,5.05
13,W2F,4.55
14,W2Y,4.92
15,W2V,4.99
16,W2R,4.83
17,W2H,4.96
18,W2K,4.78
19,W2Q,5.31
20,K3I,2.86
21,K3M,4.11
22,K3G,4.22

row,Variant,protein stability index
1,K3T,4.36
2,K3D,5.06
3,K3H,4.54
4,K3N,4.8
5,K3A,4.19
6,K3W,3.27
7,K3Y,3.81
8,K3F,3.31
9,K3L,3.81
10,K3S,4.51
11,K3R,4.28
12,K3P,4.72
13,K3V,3.67
14,K3Q,4.88
15,K3C,3.49
16,K3E,5.19
17,M4D,5.16
18,M4A,4.43
19,M4G,4.86
20,M4C,4.27
21,M4H,4.81
22,M4E,4.94

row,Variant,protein stability index
1,M4F,3.99
2,L1H,4.92
3,L1R,4.8
4,L1E,5.32
5,L1T,5
6,L1F,4.31
7,L1M,4.59
8,L1G,4.75
9,L1K,4.57
10,L1I,3.97
11,L1Q,5.18
12,L1W,4.18
13,L1N,4.84
14,L1A,5.06
15,L1S,4.78
16,L1Y,4.26
17,L1C,4.43
18,L1P,5.08
19,L1D,5.23
20,L1V,4.69
